One molecule from patent publication US20020045591A1, “Methods and therapeutic compositions for treating cancer” (priority 1998, published 2002) can be followed below.

For test [1], the system named is SW480 cells. The test can be described thus: Immunofluorescence localization in SW480 cells (Example 1). The format is cell-based, human. The conditions noted are these: transfected SW480 cells, FIG. 6B. From the text: (§1) Immunofluorescence microscopy: Cells cultured on glass coverslips were fixed with 3% paraformaldehyde in phosphate-buffered saline (PBS) and permeabilized with 0.5% Triton X-100. CHO cells were immunofluorescently labeled as described (Levenberg S. et al. (1998) Long-range and selective autoregulation of cell-cell and cell-matrix adhesions by cadherin or integrin ligands. J. Cell Sci. 111:347-357). Nuclei were visualized using DAPI and the fluorescence was examined using a Zeiss Axiophot microscope and a x100/1.3 Planapochromat objective.

Test [2] addresses T1, β-catenin (Cricetulus griseus, UniProt G3H996).
T1 construct: resulting from the stabilization of the endogenous β-catenin by the transfected cadherin derivatives; endogenous in cells; host or cells: CHO cells, stably or transiently transfected with cadherin derivatives only
T1 sequence (G3H996 1-781): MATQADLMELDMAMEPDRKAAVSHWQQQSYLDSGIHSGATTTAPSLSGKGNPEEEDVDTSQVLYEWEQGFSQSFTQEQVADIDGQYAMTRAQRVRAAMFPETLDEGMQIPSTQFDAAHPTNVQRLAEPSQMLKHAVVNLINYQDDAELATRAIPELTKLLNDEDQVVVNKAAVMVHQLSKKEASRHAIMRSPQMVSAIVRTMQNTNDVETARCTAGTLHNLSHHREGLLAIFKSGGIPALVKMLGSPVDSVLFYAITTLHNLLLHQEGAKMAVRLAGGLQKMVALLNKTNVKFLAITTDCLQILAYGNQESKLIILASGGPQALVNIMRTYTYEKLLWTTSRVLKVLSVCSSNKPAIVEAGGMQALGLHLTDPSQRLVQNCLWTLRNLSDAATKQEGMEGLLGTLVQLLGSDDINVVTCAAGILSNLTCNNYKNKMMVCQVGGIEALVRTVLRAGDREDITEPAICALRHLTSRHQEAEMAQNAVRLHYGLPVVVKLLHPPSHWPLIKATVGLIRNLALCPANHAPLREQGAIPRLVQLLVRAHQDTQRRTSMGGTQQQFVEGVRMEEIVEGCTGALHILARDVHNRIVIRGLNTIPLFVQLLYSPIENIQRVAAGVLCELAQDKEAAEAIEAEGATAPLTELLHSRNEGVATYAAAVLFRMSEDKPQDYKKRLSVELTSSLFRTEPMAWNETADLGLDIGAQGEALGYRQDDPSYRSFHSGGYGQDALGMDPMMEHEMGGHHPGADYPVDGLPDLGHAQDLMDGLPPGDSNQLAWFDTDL
The test can be described thus: Co-immunoprecipitation of cadherin derivatives with β-catenin in CHO cells. The test is classed as binding. Particulars: stably transfected CHO cells, FIG. 2B. From the text: Immunoblotting and immunoprecipitation: The following antibodies were used: polyclonal pan-cadherin or monoclonal anti cadherin (CH-19) and polyclonal anti β-catenin antibodies were from Sigma (Holon, Israel). Monoclonal anti β-catenin, 5H10 (from M. Wheelock), anti IL2Rα (from UBI), anti flag (M2, from IBI), anti HA (clone 12CA5, from Boehringer Mannheim, Germany), anti GFP (polyclonal, from Clontech, Palo Alto, Calif.), anti LEF-1 (polyclonal, kindly provided by Dr. R. Grosschedl). Secondary antibodies for Western blotting were goat anti rabbit or anti mouse conjugated to HRP (Amersham, Buckinghampshire, UK), and for immunofluorescence analysis the secondary antibodies were FITC-goat anti mouse (Cappel, USA) or rhodamine-anti rabbit antibodies (from Jackson Immuno-Research, West Grove, Pa.). Cells were harvested in Laemmli's sample buffer and equal amounts of total cell protein from the different clones, or from transient transfections, were separated by SDS-PAGE, electrotransferred to nitrocellulose and incubated with the different antibodies. For immunoprecipitation, cells were harvested in IP buffer (20 mM Tris pH 8.0, 1% Triton X-100, 140 mM NaCl, 10% glycerol, 1 mM EGTA, 1.5 mM MgCl2, 1 mM DTT, 1 mM sodium vanadate, and 50 μg/ml PMSF). […]

The subject of test [3] is CHO cells. The test can be described thus: Immunofluorescence localization in CHO cells. The test is classed as cell-based. The conditions noted are these: stably transfected CHO cells, FIG. 4.
Text: as §1

For test [4], the target named is T1, β-catenin. The test can be described thus: β-catenin level in CHO cells by Western blot. The format is cell-based. Particulars: stably transfected CHO cells, FIG. 2A. The protocol:
Cell culture and transfections: CHO and SW480 human colon carcinoma cells were cultured in Dulbecco's modified Eagle's medium containing 10% fetal calf serum in an 8% CO2 incubator at 37° C. Transfections were performed using Lipofectamine (Gibco, BRL, USA) according to the manufacturer's instructions. Stably transfected CHO clones were generated by co-transfection with a plasmid encoding the puromycin resistance gene. Two days after transfection, cells were replated in the presence of 10 μg/ml puromycin (Sigma, Holon, Israel). Stable clones were isolated 2 weeks later and tested for the expression of the transgene by Western blot analysis.
Immunoblotting and immunoprecipitation: The following antibodies were used: polyclonal pan-cadherin or monoclonal anti cadherin (CH-19) and polyclonal anti β-catenin antibodies were from Sigma (Holon, Israel). Monoclonal anti β-catenin, 5H10 (from M. Wheelock), anti IL2Rα (from UBI), anti flag (M2, from IBI), anti HA (clone 12CA5, from Boehringer Mannheim, Germany), anti GFP (polyclonal, from Clontech, Palo Alto, Calif.), anti LEF-1 (polyclonal, kindly provided by Dr. R. Grosschedl). […]
A general note: A western blot detects proteins with antibodies after separation by electrophoresis.

B1: N-cadherin tail: Cytoplasmic domain of chicken N-cadherin tagged with a Flag epitope (protein)
chain: MKRRDKERQAKQLLIDPEDDVRDNILKYDEEGGGEEDQDYDLSQLQQPDTVEPDAIKPVGIRRLDERPIHAEPQYPVRSAAPHPGDIGDFINEGLKAADNDPTAPPYDSLLVFDYEGSGSTAGSLSSLNSSSSGGEQDYDYLNDWGPRFKKLADMYGGGDD
modifications: left off: small tags and cut ends
Take B1: the “subcellular localization of β-catenin” value in test [1] was “colocalized with β-catenin in the nucleus”. Besides, the “interaction with β-catenin by co-immunoprecipitation” value in test [2] is given as “direct interaction”. For the same molecule, the “subcellular localization of cadherin derivative and β-catenin” value in test [3] is “mainly localized in the nucleus”. Also, in test [4], the “effect on β-catenin levels” value is “increase in β-catenin levels”.
